“Also recorded” adds a separate entry of the source. Like-named read-outs stand apart in the source and are kept apart here.
Key:
MCF7 cells [1] = assay: Proliferation assay (Cell Titer-Glo), MCF7; type: cell-based, human
Procedure: (§1) Cells were seeded in duplicate or triplicate at 1500 to 5000 cells per well in 96 well plates, Opaque-walled 96-well plates with clear bottom: 96-well, Black/Clear, Flat bottom with lid, FALCON, 353219 in reduced serum conditions at either 3% v/v FBS or 1% v/v FBS. The day after plating recombinant HRGβ1 was added to yield a final concentration of 10 nM. Control wells received media without HRGβ1. Plates were then incubated for the indicated time period of 4 to 6 days at 37° C. in a humid atmosphere with 95% air, 5% CO2.
(§2) The day after plating recombinant HRGβ1 was added to yield a final concentration of 10 nM. Control wells received media without HRGβ1. […] Where indicated CDK inhibitors were added at 10 μM and dilutions were performed to generate a dose-response curve with 2 controls wells per row. Plates were then incubated for the indicated time period of 4 to 6 days at 37° C. in a humid atmosphere with 95% air, 5% CO2. Growth inhibition was calculated as a function of the relative inhibition or proliferation of cells treated with either growth factor or antagonists to cells treated with diluent only, over the same time period.
(§3) The day after plating recombinant HRGβ1 was added to yield a final concentration of 10 nM. Control wells received media without HRGβ1. […] Where indicated CDK inhibitors were added at 10 μM and dilutions were performed to generate a dose-response curve with 2 controls wells per row. Plates were then incubated for the indicated time period of 4 to 6 days at 37° C. in a humid atmosphere with 95% air, 5% CO2.
(§4) To measure proliferation, Cell Titer-Glo (CTG) assays were performed as per manufacturer's instructions. Specifically, reagent-1 and reagent-2 were equilibrated to room temperature at which point reagent-1 was added to reagent-2 and mixed by vortex. Test plates containing cells were equilibrated to room temperature for 30 minutes at which point an equal volume of CTG reagent was added to each well of the test plate, typically 100 μl to give a final volume of 200 μl per well. Each plate was then sealed with a foil plate sealer and mixed on an orbital shaker for 10 minutes to lyse cells and release cellular ATP. Following mixing plates were incubated at room temperature for 15 minutes to stabilize the luminescent signal. Data was collected by measuring relative luminescence on a Synergy H1 plate reader using the luminescence program. Growth was calculated and expressed as a relative value to the unstimulated control wells on each individual plate. Growth inhibition was calculated as a function of the relative inhibition of cells treated with antagonists to the growth of cells treated with diluent only, over the same time period. Data was then plotted using GraphPad Prism software.

CDK2 = CDK2 activation (phospho-Thr160) by Western blotting in MCF7 cells; type: cell-based, human; conditions: for CDK2 activation: MCF7, agent alone, 20-24 hours, HRG 10 nM, fulvestrant, palbociclib, abemaciclib 100 nM
Procedure: Cellular lysates were prepared by lysis in MPER lysis buffer with the addition of protease and phosphatase inhibitors for 30 minutes on ice. Cellular debris was removed by centrifugation at 10,000 rpm. Proteins were analyzed by Western blotting according to standard protocols.

MCF7 cells [2] = assay: Cell cycle / S-phase by EdU incorporation and flow cytometry in MCF7 cells; type: cell-based, human
Procedure: FIG. 13 is a representative FACS plot of the cell cycle distribution. The gate settings and percentage for cells in G0/G1, S and G2/M phases are indicated. DNA synthesis (S-phase) was determined by quantifying cells positive for both EdU incorporation and DNA content.

RB = RB phosphorylation (S807/811, S780) by Western blotting in MCF7 cells; type: cell-based, human; conditions: MCF7, 20-24 hours; HRG 10 nM, fulvestrant 50 nM, palbociclib, abemaciclib 40 nM
Procedure: MCF7 cells were cultured as described above. […] Cellular lysates were prepared by lysis in MPER lysis buffer with the addition of protease and phosphatase inhibitors for 30 mins on ice. Cellular debris were removed by centrifugation at 10,000 rpm. Proteins were analyzed by Western blotting according to standard protocols. Protein loading was estimated by blotting with a β-actin antibody (β-Actin (13E5) Rabbit mAb #4970 Cell Signal) and RB activation was measured by detection of phosphorylation of RB (pRB) at pRb (S807/811): Cat #8516 pRb (S780): Cat #8180. Control antibodies as follows total AKT: Cat #9272 pAKT: Cat #4060.

[3] = cited from earlier work
[4] = tested on: metastatic ER-positive HER2-negative breast cancer; conditions: letrozole plus palbociclib, combination arm; cited from earlier work
T47D cells = assay: Proliferation assay (Cell Titer-Glo), T47D; type: cell-based, human
Procedure: as §1, §2, §3, §4

HCC1428 cells = assay: Proliferation assay (Cell Titer-Glo), HCC1428; type: cell-based, human; conditions: HCC1428, stimulated with HRG for 6 days
Procedure: as §1
To measure proliferation, Cell Titer-Glo (CTG) assays were performed as per manufacturer's instructions. Specifically, reagent-1 and reagent-2 were equilibrated to room temperature at which point reagent-1 was added to reagent-2 and mixed by vortex. […] Data was collected by measuring relative luminescence on a Synergy H1 plate reader using the luminescence program. Growth was calculated and expressed as a relative value to the unstimulated control wells on each individual plate. Growth inhibition was calculated as a function of the relative inhibition of cells treated with antagonists to the growth of cells treated with diluent only, over the same time period. […]

ZR75-1 cells = assay: Proliferation assay (Cell Titer-Glo), ZR75-1; type: cell-based, human; conditions: ZR75-1
Procedure: as §2
The day after plating recombinant HRGβ1 was added to yield a final concentration of 10 nM. Control wells received media without HRGβ1. […]
To measure proliferation, Cell Titer-Glo (CTG) assays were performed as per manufacturer's instructions. […] Data was collected by measuring relative luminescence on a Synergy H1 plate reader using the luminescence program. Growth was calculated and expressed as a relative value to the unstimulated control wells on each individual plate. Growth inhibition was calculated as a function of the relative inhibition of cells treated with antagonists to the growth of cells treated with diluent only, over the same time period. […]

MCF7 cells [5] = assay: Proliferation assay (Cell Titer-Glo), MCF7; type: cell-based, human; conditions: MCF7, ligands 1 nM, fulvestrant 50 nM, palbociclib 40 nM, 6 days

Molecule: CC(=O)c1c(C)c2cnc(Nc3ccc(N4CCNCC4)cn3)nc2n(C2CCCC2)c1=O [palbociclib, 6-acetyl-8-cyclopentyl-5-methyl-2-{[5-(piperazin-1-yl)pyridin-2-yl]amino}pyrido[2,3-d]pyrimidin-7(8H)-one]
- proliferation (MCF7 cells [1]; MCF7, single agent CDK4/6 inhibitor over a dose range, 6 days): inhibited proliferation in a dose dependent manner
- CDK2 activation (CDK2): inhibited CDK2 activation
- S-phase cell cycle progression (MCF7 cells [2]; MCF7, single agents in the absence of HRG): efficacious at inhibiting S-phase cell cycle progression
- RB phosphorylation / activation (RB): decrease RB activation
- solubility ([3]; above pH 4): reduces significantly
- solubility ([3]; at or below pH 4): high-solubility compound
- overall survival [4]: did not reach statistical significance
- progression free survival (PFS) [4]: statistically significant increase

B1: HRG: heregulin, naturally occurring ligand of ErbB3; recombinant HRGβ1 from R&D Systems used in the assays (protein)
chain: SHLVKCAEKEKTFCVNGGECFMVKDLSNPSRYLCKCPNEFTGDRCQNYVMASFYKHLGIEFMEAE
- effect of HRG on the CDK4/6 inhibitor-fulvestrant combination (MCF7 cells [1]; MCF7): blocked
- effect of HRG on CDK4/6 inhibitor activity (MCF7 cells [1]; MCF7, HRG 10 nM, CDK4/6 inhibitor dose range): significantly repressed CDK4/6 inhibitor activity
- proliferation (MCF7 cells [1]; MCF7, estradiol and HRG in combination): increased proliferation
- proliferation (MCF7 cells [1]; MCF7, stimulated with HRG for 6 days): induced proliferation; also recorded: significantly increased the proliferation
- proliferation (T47D cells; estradiol and HRG in combination): increased proliferation
- inhibiting fulvestrant, palbociclib and combination activity, ligand comparison (T47D cells; ligands 1 nM, fulvestrant 50 nM, palbociclib 40 nM, 6 days): most effective ligand
- proliferation (T47D cells; stimulated with HRG for 6 days): induced proliferation; also recorded: significantly increased the proliferation
- proliferation (HCC1428 cells): induced proliferation
- effect of HRG on CDK4/6 inhibitor activity (ZR75-1 cells): inhibited the activity of CDK4/6 inhibitors
- effect of HRG on inhibition of CDK2 activation by fulvestrant, palbociclib or abemaciclib (CDK2; MCF7, HRG 10 nM): blocked this inhibitory activity
- CDK2 activation (CDK2): can activate CDK2
- effect of HRG on cell cycle inhibitory activity of the palbociclib-fulvestrant combination (MCF7 cells [2]; MCF7): blocked the cell cycle inhibitory activity
- proportion of cells in the S-phase (MCF7 cells [2]; MCF7, 24 hours, resting cells 15.8%): 55%
- effect of HRG on cell cycle inhibitory activity of fulvestrant or palbociclib (MCF7 cells [2]; MCF7, single agents): significantly inhibited
- RB phosphorylation / activation (RB): promoted the phosphorylation and activation of RB
- inhibiting fulvestrant, palbociclib and combination activity, ligand comparison (MCF7 cells [5]): most effective ligand

Reference: patent US20190091227A1, “METHODS FOR TREATING ER+, HER2-, HRG+ BREAST CANCER USING COMBINATION THERAPIES COMPRISING AN ANTI-ERBB3 ANTIBODY” (Merrimack Pharmaceuticals, Inc., priority 2016, published 2019)
